Measured values published in patent publication US20260258143A1 (published 2026).
Read-outs that look alike come from different tables or passages of the source. Values belong to the binder of their own block, whether it stands above or below them.

How the values were obtained:
Assay in all cases: SPR
[1] = biological target: T1, human CD25-extracellular domain (CD25-ECD) (UniProt P01589 22-240)
T1 chain: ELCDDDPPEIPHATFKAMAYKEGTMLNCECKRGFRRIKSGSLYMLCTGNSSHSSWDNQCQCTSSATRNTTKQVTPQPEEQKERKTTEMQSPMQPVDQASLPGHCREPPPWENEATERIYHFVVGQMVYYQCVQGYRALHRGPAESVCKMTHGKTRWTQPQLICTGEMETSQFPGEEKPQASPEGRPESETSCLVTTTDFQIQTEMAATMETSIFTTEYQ

[2] = biological target: T1, human CD25-extracellular domain …
[3] = biological target: T1, human CD25-extracellular domain …
cynomolgus CD25 [4] = biological target: cynomolgus CD25
cCD25 = biological target: cCD25
83B05Hu1_A = biological target: 83B05Hu1_A
[5] = biological target: T1, human CD25-extracellular domain …
[6] = biological target: T1, human CD25-extracellular domain …
cynomolgus CD25 [7] = biological target: cynomolgus CD25; remark: listed apart in the source
[8] = biological target: T1, human CD25-extracellular domain …
cynomolgus CD25 [9] = biological target: cynomolgus CD25; remark: listed apart in the source
[10] = biological target: T1, human CD25-extracellular domain …
cynomolgus CD25 [11] = biological target: cynomolgus CD25; remark: listed apart in the source
[12] = biological target: T1, human CD25-extracellular domain …
[13] = biological target: T1, human CD25-extracellular domain …
[14] = biological target: T1, human CD25-extracellular domain …
cynomolgus CD25 [15] = biological target: cynomolgus CD25; remark: listed apart in the source

B2: humanized anti-CD25 V-body 47D3 (VHH)
VHH: EVQLLESGGGLVQPGGSLRVSCAASGRTFSWNGMGWFRQAPGKEREFVAAISQSGGRTRYADSVKGRFTISRDNAKNTVYLQMNSLRPEDTAVYYCAASDFLLATTISAYDYWGQGTQVTVSS
Kd [2]: 0.0016 µM | Kd [3]: 0.0016 µM

B3: 47D3 (VHH)
VHH: EVQLLESGGGLVQPGGSLRVSCAASGRTFSWNGMGWFRQAPGKEREFVAAISQSGGRTRYADSVKGRFTISRDNAKNTVYLQMNSLRPEDTAVYYCAASDFLLATTISAYDYWGQGTQVTVSS
Kd (cynomolgus CD25 [4]): 0.049 µM | Kd (cCD25): 0.049 µM

B5: humanized anti-CD25 V-body 46A3 (VHH)
VHH: EVQLLESGGGLAQPGGSLRLSCAASGFTFSNYAMSWARQAPGKGLEWVSGIYSDGSGTYYADSVKGRFTISRDNAKNTVYLQMNSLRPEDTAVYYCAKGRNSGSYYPWDDYWGQGTQVTVSS
Kd [5]: 0.049 µM | Kd [2]: 0.049 µM

B6: ODY-N1813Hu1 (antibody, V domains shown)
VH: EVQLLESGGGLAQPGGSLRLSCAASGFTFSNYAMSWARQAPGKGLEWVSGIYSDSSGTYYADSVKGRFTISRDNAKNTVYLQMNSLRPEDTAVYYCAKGRGSGSYYPFEDYWGQGTQVTVSS
Kd [6]: 0.05 µM

B7: ODY-46A3 (VHH)
VHH: EVQLLESGGGLAQPGGSLRLSCAASGFTFSNYAMSWARQAPGKGLEWVSGIYSDGSGTYYADSVKGRFTISRDNAKNTVYLQMNSLRPEDTAVYYCAKGRNSGSYYPWDDYWGQGTQVTVSS
Kd (cynomolgus CD25 [7]): 0.034 µM

B8: ODY-83B05Hu1 (VHH)
VHH: EVQLLESGGGLVQPGGSLRLSCAASGFTLDYYAIGWFRQAPGKEREGVLSISSTDGRTYYADSVKGRFTISRDNPKNTVYLQLNSLRPEDTAVYYCAAKRLGPMVHRYSLEVLTPLFLDEYDYWGQGTQVTVSS
Kd [8]: 0.035 µM | Kd (cynomolgus CD25 [9]): 0.097 µM

B10: ODY-83F07Hu1 (VHH)
VHH: EVQLLESGGGLVQPGGSLRLSCAASGFTLDYYAIGWFRQAPGKEREGVLSISSTDGRTYYADSVKGRFTISRDNPKNTVYLQLNSLRPEDTAVYYCAAKRLGPMVHQYSLEVLTPLFLDEYDYWGQGTQVTVSS
Kd (cynomolgus CD25 [11]): 0.097 µM | Kd [12]: 0.058 µM

Further lines, results first:

Kd [1]: 0.017 µM
B1: ODY-N2002Hu1 (antibody, V domains shown)
VH: EVQLVESGGGLVQPGGSLRLSCAVSGRSFSTLIMAWYRQAPGKQRELVATIDRGGTTTYADSVKGRFTISRDNAKNTVYLQMNSLRPEDTAVYYCKTLRYWGQGTQVTVSS

Kd (83B05Hu1_A): 0.076 µM
B4: human CD25 (receptor)
chain: ELCDDDPPEIPHATFKAMAYKEGTMLNCECKRGFRRIKSGSLYMLCTGNSSHSSWDNQCQCTSSATRNTTKQVTPQPEEQKERKTTEMQSPMQPVDQASLPGHCREPPPWENEATERIYHFVVGQMVYYQCVQGYRALHRGPAESVCKMTHGKTRWTQPQLICTGEMETSQFPGEEKPQASPEGRPESETSCLVTTTDFQIQTEMAATMETSIFTTEYQ

Kd [10]: 0.097 µM
B9: 83F07Hu1_L (antibody, V domains shown)
VH: EVQLLESGGGLVQPGGSLRLSCAASGFTLDYYAIGWFRQAPGKEREGVLSISSTDGRTYYADSVKGRFTISRDNPKNTVYLQLNSLRPEDTAVYYCAAKRLGPLVHQYSLEVLTPLFLDEYDYWGQGTQVTVSS

Kd [13]: 0.061 µM
B11: 83B05Hu1_L (antibody, V domains shown)
VH: EVQLLESGGGLVQPGGSLRLSCAASGFTLDYYAIGWFRQAPGKEREGVLSISSTDGRTYYADSVKGRFTISRDNPKNTVYLQLNSLRPEDTAVYYCAAKRLGPLVHRYSLEVLTPLFLDEYDYWGQGTQVTVSS

Kd [14]: 0.021 µM | Kd (cynomolgus CD25 [15]): 0.112 µM
B12: ODY-83B03Hu1 (VHH)
VHH: EVQLVESGGGLVQPGGSLRLSCAASGMPLVAMGWYRQAPGKQRELVASISSGGNTGYADSVKGRFTISRDNAKKTVYLQMNSVRPEDTGVYYCNIYRSQVPPTRYSWGQGTQVTVSS
